What was measured:
C=C(OP(=O)(O)O)C(=O)O = assay: purified protein
[1] = target: T1, 3-deoxy-D-arabino-heptulosonate 7-phosphate synthase (MtuDAH7PS) (Mycobacterium tuberculosis, UniProt O53512); assay: X-ray crystal structure (with D/L-Trp); format: binding
T1 construct: gene aroG; chain length 464 residues, homotetramer
T1 sequence (O53512 whole entry): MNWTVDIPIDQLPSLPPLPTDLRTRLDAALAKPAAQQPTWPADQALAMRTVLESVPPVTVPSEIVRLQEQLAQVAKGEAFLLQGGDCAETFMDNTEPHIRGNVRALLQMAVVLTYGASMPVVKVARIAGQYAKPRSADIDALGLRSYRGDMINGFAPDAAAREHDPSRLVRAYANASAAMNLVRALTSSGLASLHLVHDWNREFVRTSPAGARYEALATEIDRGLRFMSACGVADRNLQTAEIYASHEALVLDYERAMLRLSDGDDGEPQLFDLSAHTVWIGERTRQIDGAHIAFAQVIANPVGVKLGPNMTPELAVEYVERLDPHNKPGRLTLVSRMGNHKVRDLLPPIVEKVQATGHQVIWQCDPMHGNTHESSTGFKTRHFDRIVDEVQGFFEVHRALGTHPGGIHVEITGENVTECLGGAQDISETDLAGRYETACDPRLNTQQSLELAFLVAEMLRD

Row | Molecule | Km (C=C(OP(=O)(O)O)C(=O)O) [µM] | kcat (C=C(OP(=O)(O)O)C(=O)O) [s⁻¹] | kcat/Km (C=C(OP(=O)(O)O)C(=O)O) [M⁻¹ s⁻¹] | X-ray crystal structure (with D/L-Trp) [1]
1 | 3-deoxy-D-arabino-heptulosonate 7-phosphate synthase (MtuDAH7PS) (Mycobacterium tuberculosis H37Rv) | 37 ± 4 | 4.7 ± 0.1 | 130000 ± 20000 | 
2 | N[C@@H](Cc1ccccc1)C(=O)O [L-Phe] |  |  |  | The Phe site in the structure obtained from these soaking conditions is occupied by L-Phe
